According to publication PMC8143792, “Sec17/Sec18 can support membrane fusion without help from completion of SNARE zippering” (eLife, 2021):

T1: Qa (Vam3), full-length (Saccharomyces cerevisiae, UniProt Q12241 1-283)
T1 construct: Vam3, the vacuolar Qa-SNARE of Saccharomyces cerevisiae, full length with its transmembrane anchor; whether GST was removed is told only in the cited work; also called GST-Qa (Vam3); source: E. coli, purified
T1 sequence (looked up): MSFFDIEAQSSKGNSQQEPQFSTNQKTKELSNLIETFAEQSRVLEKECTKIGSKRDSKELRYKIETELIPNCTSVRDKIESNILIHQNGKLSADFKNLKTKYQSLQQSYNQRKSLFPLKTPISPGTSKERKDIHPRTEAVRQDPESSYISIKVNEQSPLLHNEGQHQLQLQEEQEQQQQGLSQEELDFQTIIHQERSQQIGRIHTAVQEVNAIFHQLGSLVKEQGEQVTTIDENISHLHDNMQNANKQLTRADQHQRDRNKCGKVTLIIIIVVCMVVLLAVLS

B1: sQa3Δ, soluble Qa (Vam3) with amino acyl residues 1–235 (domain or fragment, Saccharomyces cerevisiae, UniProt Q12241 1-235, looked up)
chain: MSFFDIEAQSSKGNSQQEPQFSTNQKTKELSNLIETFAEQSRVLEKECTKIGSKRDSKELRYKIETELIPNCTSVRDKIESNILIHQNGKLSADFKNLKTKYQSLQQSYNQRKSLFPLKTPISPGTSKERKDIHPRTEAVRQDPESSYISIKVNEQSPLLHNEGQHQLQLQEEQEQQQQGLSQEELDFQTIIHQERSQQIGRIHTAVQEVNAIFHQLGSLVKEQGEQVTTIDENI
notes: Vam3 of Saccharomyces cerevisiae, residues 1-235; lacks the regions C-terminal to the +3 layer of the SNARE domain; also called GST-sQa3Δ; GST-Qa (Vam3)3Δ; source: E. coli Rosetta2 (DE3)-pLysS, purified (glutathione agarose), GST tag removed by TEV protease
B2: Qb (Vti1), full-length (natural protein, Saccharomyces cerevisiae, UniProt Q04338 1-217, looked up)
chain: MSSLLISYESDFKTTLEQAKASLAEAPSQPLSQRNTTLKHVEQQQDELFDLLDQMDVEVNNSIGDASERATYKAKLREWKKTIQSDIKRPLQSLVDSGDRDRLFGDLNASNIDDDQRQQLLSNHAILQKSGDRLKDASRIANETEGIGSQIMMDLRSQRETLENARQTLFQADSYVDKSIKTLKTMTRRLVANKFISYAIIAVLILLILLVLFSKFK
notes: Vti1, the vacuolar Qb-SNARE of Saccharomyces cerevisiae, full length with its transmembrane anchor; whether GST was removed is told only in the cited work; also called GST-Qb (Vti1); source: E. coli, purified
B3: sQb3Δ, soluble Qb (Vti1) with amino acyl residues 1–160 (domain or fragment, Saccharomyces cerevisiae, UniProt Q04338 1-160, looked up)
chain: MSSLLISYESDFKTTLEQAKASLAEAPSQPLSQRNTTLKHVEQQQDELFDLLDQMDVEVNNSIGDASERATYKAKLREWKKTIQSDIKRPLQSLVDSGDRDRLFGDLNASNIDDDQRQQLLSNHAILQKSGDRLKDASRIANETEGIGSQIMMDLRSQRE
notes: Vti1 of Saccharomyces cerevisiae, residues 1-160; lacks the regions C-terminal to the +3 layer of the SNARE domain; also called GST-sQb3Δ; GST-Qb (Vti1)3Δ; source: E. coli Rosetta2 (DE3)-pLysS, purified (glutathione agarose), GST tag removed by TEV protease
B4: his6-R (Nyv1), full-length R-SNARE with a 6his-tag on its N-terminus (natural protein, Saccharomyces cerevisiae, UniProt Q12255 1-253, looked up)
chain: MKRFNVSYVEVIKNGETISSCFQPFQKNENYGTITSANEQITPVIFHNLIMDMVLPKVVPIKGNKVTKMSMNLIDGFDCFYSTDDHDPKTVYVCFTLVDMPKILPIRILSGLQEYESNATNELLSSHVGQILDSFHEELVEYRNQTLNSSGNGQSSNGNGQNTISDIGDATEDQIKDVIQIMNDNIDKFLERQERVSLLVDKTSQLNSSSNKFRRKAVNIKEIMWWQKVKNITLLTFTIILFVSAAFMFFYLW
notes: Nyv1, the vacuolar R-SNARE of Saccharomyces cerevisiae, full length with its membrane anchor; construct as in the cited work (PMID:22174414); also called His-R (Nyv1); source: E. coli, purified; not shown: His6, N-terminal, kept

Tests used:
[1] = target: B4; assay: pull-down; his6-R held on nickel-NTA agarose; 2.5 µM of each SNARE (R and three Q-SNAREs mixed), Buffer 151 (20 mM HEPES-NaOH, pH 7.4, 150 mM NaCl, 10% glycerol, 1% ß-OG, 20 mM imidazole), 4°C, 2 hr then 1 hr on beads; immunoblot; settings: both partners purified
[2] = target: T1, Qa (Vam3), full-length; assay: as above; settings: both partners purified

| Binder | binding result [1] | binding result [2] |
| --- | --- | --- |
| B1 | binds | – |
| B2 | binds | – |
| B3 | binds | – |
| B4 | – | binds |
